According to paper PMC8913300, “Two distinct classes of cochaperones compete for the EEVD motif in heat shock protein 70 to tune its chaperone activities” (The Journal of Biological Chemistry, 2022):

Columns and labels:
[1] = target: Hsp70 EEVD motif (Homo sapiens) (UniProt P0DMV8); conditions: cited from earlier work
[2] = target: Hsp72 tracer FITC-Ahx-…; assay: fluorescence polarisation; saturation binding; 20 nM fluorescent Hsp72 tracer, J-domain protein titrated in 2x dilutions (110-0.013 μM told for DnaJB4); 50 mM Tris, 15 mM NaCl, 1 mM DTT, 0.01% Triton X-100, pH 8.0; 30 min at room temperature

Chain of Hsp70 EEVD motif (Homo sapiens) (P0DMV8 whole entry, looked up): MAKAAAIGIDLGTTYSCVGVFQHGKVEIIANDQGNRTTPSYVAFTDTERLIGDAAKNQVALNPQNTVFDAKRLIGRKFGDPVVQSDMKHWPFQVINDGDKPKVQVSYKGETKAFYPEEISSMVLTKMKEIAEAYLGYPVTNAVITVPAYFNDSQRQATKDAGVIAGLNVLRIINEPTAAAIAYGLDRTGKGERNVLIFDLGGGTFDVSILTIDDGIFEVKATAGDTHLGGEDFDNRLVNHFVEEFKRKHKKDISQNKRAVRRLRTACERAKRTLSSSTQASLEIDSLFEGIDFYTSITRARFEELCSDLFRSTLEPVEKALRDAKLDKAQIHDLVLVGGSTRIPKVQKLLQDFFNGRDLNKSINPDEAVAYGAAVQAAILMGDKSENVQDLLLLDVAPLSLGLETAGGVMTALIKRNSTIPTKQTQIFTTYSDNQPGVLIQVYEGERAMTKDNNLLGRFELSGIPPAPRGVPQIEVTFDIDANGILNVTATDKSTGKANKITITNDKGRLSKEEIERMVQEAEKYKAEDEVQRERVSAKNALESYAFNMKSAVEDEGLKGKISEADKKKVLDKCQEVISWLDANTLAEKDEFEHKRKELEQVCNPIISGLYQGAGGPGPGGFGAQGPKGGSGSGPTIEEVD
Chain of DnaJB1 CTD I (P25685 161-243): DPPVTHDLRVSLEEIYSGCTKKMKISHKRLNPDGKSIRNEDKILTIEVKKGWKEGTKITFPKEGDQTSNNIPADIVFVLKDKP

## DnaJB1 CTD I (from UniProt P25685)
[1]
  Kd: 15 µM

## DnaJB4 QPD mutant (from UniProt Q9UDY4 1-337) (natural protein)
[2]
  Kd: 2.44 µM
